We go through one substance from article PMC9512702.

Experiment [1] addresses mammalian expressed RBD (mRBD) of SARS-CoV-2 spike (SARS-CoV-2) (UniProt P0DTC2). As to the kind of experiment: SPR.
Experiment [2] shares this target. Briefly: SEC-MALS.
Experiment [3] shares this target. As to the kind of experiment: nanoDSF thermal shift.

LCB1 (designed binder) yielded a Kd in experiment [1] of 0.042 nM. Further, the stoichiometry N in experiment [2] was 1 LCB1:RBD. Also, in experiment [3], the other worked out at 16 °C.
